# Experimental data as given in article PMC11100828.
# Target: human Nup153^CTD (C-terminal domain, aa 896-1485), MBP and SNAP-tag fusion protein (human)
# Experiment: negative-stain TEM, occupancy of NuPODs by capsids
substance,measurement,value
HBV capsids assembled in vitro from wild type HBV core protein (HBc) (from UniProt P03146 1-183) (complex),percent of NuPODs occupied by at least one capsid,90%
